Measured values published in patent US20040081647.

Target: recombinant human TNFα (RDI) (UniProt P01375)
Sequence (P01375 77-233): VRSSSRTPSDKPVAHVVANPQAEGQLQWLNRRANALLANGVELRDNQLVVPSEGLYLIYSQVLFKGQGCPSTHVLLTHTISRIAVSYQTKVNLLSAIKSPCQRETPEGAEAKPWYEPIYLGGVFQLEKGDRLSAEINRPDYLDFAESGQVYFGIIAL

Protein | log reduction in TNFα activity (L929 cytotoxicity bioassay after overnight digestion) | inactivation of TNFα (L929 cytotoxicity bioassay after overnight digestion)
MMP7 (enzyme, UniProt P09237 95-267, looked up, species assumed) Matrilysin: YSLFPNSPKWTSKVVTYRIVSYTRDLPHITVDRLVSKALNMWGKEIPLHFRKVVWGTADIMIGFARGAHGDSYPFDGPGNTLAHAFAPGTGLGGDAHFDEDERWTDGSSLGINFLYAATHELGHSLGMGHSSDPNAVMYPTYGNGDPQNFKLSQDDIKGIQKLYGKRSNSRKK | MMP7 (1.22) | –
ADAMTS4 (enzyme, UniProt O75173 213-837, looked up, species assumed) A disintegrin and metalloproteinase with thrombospondin motifs 4: FASLSRFVETLVVADDKMAAFHGAGLKRYLLTVMAAAAKAFKHPSIRNPVSLVVTRLVILGSGEEGPQVGPSAAQTLRSFCAWQRGLNTPEDSDPDHFDTAILFTRQDLCGVSTCDTLGMADVGTVCDPARSCAIVEDDGLQSAFTAAHELGHVFNMLHDNSKPCISLNGPLSTSRHVMAPVMAHVDPEEPWSPCSARFITDFLDNGYGHCLLDKPEAPLHLPVTFPGKDYDADRQCQLTFGPDSRHCPQLPPPCAALWCSGHLNGHAMCQTKHSPWADGTPCGPAQACMGGRCLHMDQLQDFNIPQAGGWGPWGPWGDCSRTCGGGVQFSSRDCTRPVPRNGGKYCEGRRTRFRSCNTEDCPTGSALTFREEQCAAYNHRTDLFKSFPGPMDWVPRYTGVAPQDQCKLTCQAQALGYYYVLEPRVVDGTPCSPDSSSVCVQGRCIHAGCDRIIGSKKKFDKCMVCGGDGSGCSKQSGSFRKFRYGYNNVVTIPAGATHILVRQQGNPGHRSIYLALKLPDGSYALNGEYTLMPSPTDVVLPGAVSLRYSGATAASETLSGHGPLAQPLTLQVLVAGNPQDTRLRYSFFVPRPTPSTPRPTPQDWLHRRAQILEILRRRPWAGRK | – | ADAMTS4 (under: Proteases that did not inactivate TNF)
Cathepsin G (enzyme, UniProt P08311 21-244, looked up, species assumed) Cathepsin G: IIGGRESRPHSRPYMAYLQIQSPAGQSRCGGFLVREDFVLTAAHCWGSNINVTLGAHNIQRRENTQQHITARRAIRHPQYNQRTIQNDIMLLQLSRRVRRNRNVNPVALPRAQEGLRPGTLCTVAGWGRVSMRRGTDTLREVQLRVQRDRQCLRIFGSYDPRRQICVGDRRERKAAFKGDSGGPLLCNNVAHGIVSYGKSSGVPPEVFTRVSSFLPWIRTTMRS | – | Cathepsin G (under: Proteases that did not inactivate TNF)
